Data reported in US6103514A, “Protease” (The University of Tokyo, priority 1997, dated 2000).

Legend:
[1] = Assay of protease activity with fluorescent peptidyl-MCA substrates; type: biochemical; conditions: for Hydrolysis of Z-Arg-Arg-MCA (in words): substrate Z-Arg-Arg-MCA
Procedure: Table 2 lists specific activities of 26·29 kDa protease, cathepsin B from flesh fly and cathepsin L from flesh fly to various substrates, which were measured in terms of their hydrolytic activities against the fluorescence-attached synthetic substrates. The numeral represents the mass of fluorescent synthetic substrate hydrolyzed by a unit weight of protease, or a specific activity of that enzyme. For the numerals of Table, one unit of activity is defined as a weight of enzyme necessary for hydrolyzing 1 μmol of substrate in 10 minutes. "ND" in Table represents no result because the test not being made. Sequence listing numbers for sequences in Table 2 are: SEQ ID NO:100 and SEQ ID NO:101.
Assay of enzymatic activity was performed using 0.2 ml of 5 mM sodium phosphate (pH 6.0) containing 0.05 mM peptidyl-MCA substrate, 100 mM NaCl, 1 mM EDTA, 5 mM 2-mercaptoethanol, and 10 μl of the test fraction. The solution was incubated at 27° C. for 10 minutes, to which was added 0.2 ml of 20% aqueous solution of acetic acid to stop the reaction. Fluorescence at 380 nm and 460 nm was observed. The amount necessary for hydrolyzing 1 μmol substrate in 10 minutes under the above condition was defined as one unit of protease activity.
For purification of 26·29 kDa protease, carbobenzoxy-Arg-Arg-MCA was used as the substrate. Further, for determination of substrate specificity, various peptidyl-MCAs were used.

[2] = cited from earlier work
26·29 kDa protease = conditions: stated under Prior Art; cited from earlier work
[3] = Assay of protease activity with fluorescent peptidyl-MCA substrates; type: biochemical; conditions: for Recovery of protease activity after treatment to restore activity: condition effective for recombinant human cathepsin L precursor, natural protease denatured first
[4] = substrate Suc-Ala-Ala-Pro-Phe-MCA
[5] = substrate Suc-Leu-Leu-Val-Tyr-MCA
[6] = substrate z-Arg-Arg-MCA, 1 unit hydrolyzes 1 μmol substrate in 10 minutes

## cathepsin B: cathepsin B from flesh fly, comparison cysteine protease
[1]; substrate Pyr-Gly-Arg-MCA
  Activity (units/mg enzyme): 0.29 units/mg enzyme
[1]; [4]
  Activity (units/mg enzyme): 0.5 units/mg enzyme
[1]; substrate Suc-Ala-Pro-Phe-MCA
  Activity (units/mg enzyme): 0.83 units/mg enzyme
[1]; [5]
  Activity (units/mg enzyme): 18.7 units/mg enzyme
[1]
  Hydrolysis of Z-Arg-Arg-MCA (in words): scarcely hydrolyzes
[1]; [6]
  Activity (units/mg enzyme): 0.86 units/mg enzyme
[1]; substrate z-Phe-Arg-MCA
  Activity (units/mg enzyme): 20.6 units/mg enzyme
[2]; substrate Suc-Leu-Leu-Val-Tyr-MCA, Kurata et al. 1992
  Hydrolysis of Suc-Leu-Leu-Val-Tyr-MCA (in words, literature): hydrolyzes
[2]; substrate Z-Arg-Arg-MCA, Takahashi et al. 1993
  Hydrolysis of Z-Arg-Arg-MCA (in words, literature): can not hydrolyze

## 26·29 kDa protease of flesh fly (Sarcophaga peregrina), isolated and purified from body fluid cells (enzyme)
Boc-Phe-Ser-Arg-MCA
  Activity (units/mg enzyme) (units/mg enzyme): 0.15
Boc-Val-Leu-Lys-MCA
  Activity (units/mg enzyme) (units/mg enzyme): 0.61
Pyr-Gly-Arg-MCA
  Activity (units/mg enzyme) (units/mg enzyme): 0.03
Suc-Ala-Ala-Pro-Phe-MCA
  Activity (units/mg enzyme) (units/mg enzyme): 0.01
Suc-Ala-Pro-Phe-MCA
  Activity (units/mg enzyme) (units/mg enzyme): 0.01
Suc-Leu-Leu-Val-Tyr-MCA
  Activity (units/mg enzyme) (units/mg enzyme): 0.03
Z-Arg-Arg-MCA
  Activity (units/mg enzyme) (units/mg enzyme): 4.29
Z-Phe-Arg-MCA
  Activity (units/mg enzyme) (units/mg enzyme): 2.25

## cathepsin B from flesh fly (enzyme)
Pyr-Gly-Arg-MCA
  Activity (units/mg enzyme) (units/mg enzyme): 0.29
Suc-Ala-Ala-Pro-Phe-MCA
  Activity (units/mg enzyme) (units/mg enzyme): 0.5
Suc-Ala-Pro-Phe-MCA
  Activity (units/mg enzyme) (units/mg enzyme): 0.83
Suc-Leu-Leu-Val-Tyr-MCA
  Activity (units/mg enzyme) (units/mg enzyme): 18.7
Z-Arg-Arg-MCA
  Activity (units/mg enzyme) (units/mg enzyme): 0.86
Z-Phe-Arg-MCA
  Activity (units/mg enzyme) (units/mg enzyme): 20.6

## cathepsin L from flesh fly (enzyme)
Suc-Leu-Leu-Val-Tyr-MCA
  Activity (units/mg enzyme) (units/mg enzyme): 0.04
Z-Arg-Arg-MCA
  Activity (units/mg enzyme) (units/mg enzyme): 0.17
Z-Phe-Arg-MCA
  Activity (units/mg enzyme) (units/mg enzyme): 180

## cathepsin L: cathepsin L from flesh fly, comparison cysteine protease
[1]; [5]
  Activity (units/mg enzyme): 0.04 units/mg enzyme
[1]
  Hydrolysis of Z-Arg-Arg-MCA (in words): practically does not hydrolyze
[1]; [6]
  Activity (units/mg enzyme): 0.17 units/mg enzyme
[1]; substrate z-Phe-Arg-MCA
  Activity (units/mg enzyme): 180 units/mg enzyme

## CC(C)C[C@H](NC(=O)[C@H]1O[C@@H]1C(=O)O)C(=O)NCCCCN=C(N)N [E64]
26·29 kDa protease
  Inhibition of protease activity: inhibited

B1: 26.multidot.29 kDa protease: bimolecular cysteine protease of 26 kDa and 29 kDa subunits, purified from body fluid cells of flesh fly (Sarcophaga peregrina) (protein)
chain 1: TNPPRWDPNYIVKGTLYIPYAEIAEPFYAWYDKNTRRSRIDYYGGMVKTYQLANEHPFGTSLKLAPITTKSELNKVTCLQLNGTSEDPVQVQAILPNAKDFKLIGTETFLGFNCDKFRLEETIGDKKNVYTLWVRYKKSPHYPASRMPIPVRYEMRGYNTLLGSHYDHYYLDYDSYDHDDIPNEVFELDDNMECMPFPGPGK
chain 2: NGGNLVRLSQQALIDCSWEYGNNGCDGGEDFRAYKWMMEMGGVPTEEEYGPYLGQDGYCHAKNVSLVAPITGFFNVTPNDPMALKIALLKHGPISVAIDASPKTFSFYSHGVYYEPTCKNGLDELDHAVLAVGYGTINGEDYWLVKNSWSTYWGNDGYILMSARKNNCGVMTMPTYVEM
[1]; substrate Boc-Phe-Ser-Arg-MCA
  Activity (units/mg enzyme): 0.15 units/mg enzyme
[1]; substrate Boc-Val-Leu-Lys-MCA
  Activity (units/mg enzyme): 0.61 units/mg enzyme
[1]; substrate Pyr-Gly-Arg-MCA
  Activity (units/mg enzyme): 0.03 units/mg enzyme
[1]; [4]
  Activity (units/mg enzyme): 0.01 units/mg enzyme
[1]; substrate Suc-Ala-Pro-Phe-MCA
  Activity (units/mg enzyme): 0.01 units/mg enzyme
[1]; [5]
  Activity (units/mg enzyme): 0.03 units/mg enzyme
[1]
  Hydrolysis of Z-Arg-Arg-MCA (in words): well hydrolyzes
[1]; substrate Z-Phe-Arg-MCA
  Hydrolysis of Z-Phe-Arg-MCA (in words): has also a hydrolyzing activity
[1]; [6]
  Activity (units/mg enzyme): 4.29 units/mg enzyme
[1]; substrate z-Phe-Arg-MCA
  Activity (units/mg enzyme): 2.25 units/mg enzyme
[3]
  Recovery of protease activity after treatment to restore activity: no positive effects

B2: recombinant homologue of 29 kDa subunit: recombinant protein of 29 kDa subunit expressed in E. coli, recovered as inclusion bodies (protein)
chain: B1 chain 2
[3]
  Recovery of protease activity after treatment to restore activity: could not recover its activity
[3]; homogenate or inclusion bodies from expressing E. coli cells
  Protease activity towards Z-Arg-Arg-MCA of recombinant protein expressed in E. coli: only as much as the control E. coli cells
